Assay results: the Human Domainome abundance scans (Beltran et al. 2025)

B1: Telomeric repeat-binding factor 2, residues 489 to 542; numbered along this chain, Q15554 (parent)
chain: KQKWTVEESEWVKAGVQKYGEGNWAAISKNYPFVNRTAVMIKDRWRTMKRLGMN

Variants of: B1
Assay: abundance fitness (aPCA) (normalised: wild type 0, dead -1); higher = more abundant; growth selection in yeast, the domain comes from the species named
Conditions: Homo sapiens

Abundance fitness: each site, then its substitutions
G15: W -0.284 | I 0.246 | V -0.587 | C -0.652 | E -0.758 | L -0.503 | A -0.761 | F -0.888 | D -0.772 | K -0.657 | M -0.934 | N -0.485 | H -0.946
S9: N 0.107 | M 0.39 | T -0.15 | V -0.483 | G -0.354 | I -0.021 | W -0.335 | A -0.219 | R -0.671 | C -0.343 | Y -0.481 | L -0.31
K1: G -0.585 | C -0.578 | M -0.501 | R -0.631 | E -0.323 | D -0.17
V12: A -0.423 | N -0.844 | Q -0.895 | H -1.02 | R -0.682 | G -0.495 | M -0.132 | K -0.626 | E -0.262 | C -0.362 | T -0.144 | W -0.744 | P -0.325 | Y -0.855 | F -0.75 | S -0.356
E8: K -1 | M -0.238 | W -0.153 | N -0.707 | A -0.381 | I -0.339 | T -0.485 | R -0.638 | G -0.394 | V -0.596 | Q -0.566 | S -0.65 | Y 0.233 | P -0.598 | L -0.19
A14: D -0.041 | F -0.4 | S 0.084 | L -0.051 | E -0.116 | P -0.306 | Y -0.217 | N -0.276 | G -0.236 | R -0.002 | Q -0.189 | H -0.209 | W -0.382
T5: L -0.75 | D -0.38 | P -0.398 | I -0.669 | G -0.421 | M -0.21 | E -0.272 | W -0.631 | Q -0.502 | S -0.105 | F -0.826 | R -0.557 | V -0.789 | K -0.161
E7: P -0.401 | G -0.834 | Y -0.329 | D -0.141 | M -0.015 | N -0.721 | H -0.377 | F -0.47 | R -0.221 | I -0.427 | W -0.443 | Q -0.075 | A -0.242 | T -0.196 | S -0.67 | L -0.258 | C -0.607 | V -0.459
V6: T -0.115 | H 0.298 | I 0.005 | R 0.03 | C 0.07 | E -0.007 | N -0.433 | A 0.291 | Y 0.192 | W -0.063 | K 0.171 | M -0.768 | G -0.253 | S -0.024 | D 0.059 | F 0.031
G22: I -0.595 | Y -0.204 | F -0.338 | K -0.418 | A -0.286 | Q -0.427 | P -0.846 | D -0.051 | E -0.461 | R -0.261 | M -0.788 | V -0.489 | W -0.695 | L -0.761 | T -0.467
E21: S -0.323 | G -0.389 | Q -0.634 | M -0.829 | C -0.432 | T -0.478 | K -0.44 | F -0.1 | Y -0.123 | A -0.314 | H -0.598 | R -0.704 | W -0.502 | D -0.26
N23: C -0.417 | I -0.354 | K 0.133 | L -0.56 | D -0.527 | M -0.385 | E -0.801 | A -0.298 | T -0.478 | Q 0.057 | P -0.773 | G -0.61 | S -0.238
W11: P -0.327 | T -0.12 | R -0.553 | V -0.47 | D -0.183 | I -0.241 | S -0.321 | F -0.394 | G -0.193 | H -0.294 | M -0.111 | A -0.352 | N -0.391 | Y -0.191
E10: G -0.38 | I -0.529 | D -0.486 | H 0.044 | T -0.102 | M -0.055 | K -0.314 | S -0.311 | C -0.277 | W -0.414 | Q -0.177 | V -0.359 | F -0.255
W4: E -0.126 | K -0.426 | A -0.804 | Q -0.266 | S -0.248 | H -0.391 | M -0.27 | L -0.41 | C -0.599 | F -0.023 | P -0.216 | I -0.131 | G -0.637 | Y -0.325 | V -0.61 | D -0.171 | R -0.747 | T -0.258
K18: P -0.686 | E -0.233 | F -0.477 | Q -0.07 | M -0.254 | R 0.076 | T -0.035 | A -0.368 | S -0.736 | N -0.435 | G -0.616 | L -0.342 | W -0.956 | C -0.403
V16: D -0.459 | T -0.157 | M -0.664 | F -0.936 | Q -0.398 | H -0.071 | K -0.798 | G -0.504 | A -0.505 | Y -0.885 | W -0.765 | S -0.563 | R -0.323 | L -0.696 | E -0.62 | I -0.446
K3: P -0.01 | N -0.499 | A -0.098 | F -0.258 | C -0.394 | M 0.339 | E -0.175 | W -0.33 | Q -0.245 | V -0.205 | I -0.278 | H -0.519 | G -0.268 | T -0.052
G20: V -0.918 | E -0.954 | I -0.621 | Y -0.781 | L -1.06 | W -0.541 | A -1.11 | H -0.126 | T -0.99 | P -0.813 | S -0.488 | Q -0.587
Q17: F -0.469 | P -0.63 | V -0.244 | T 0.003 | S -0.087 | C 0.016 | M -0.531 | G -0.108 | N -0.295 | L -0.014 | W -0.376 | I -0.066 | Y -0.136 | R -0.2 | E -0.441 | A -0.031 | D -0.273 | H -0.328 | K -0.143
Q2: H 0.518 | S -0.175 | E 0.254 | P -0.981 | F 0.725 | N 0.333 | M -0.191 | A -0.138 | L -0.017 | V 0.271 | W -0.34 | G -0.163 | R -0.202 | D 0.184 | C -0.248 | I 0.29
K13: A -0.242 | M -0.013 | F -0.24 | N -0.232 | Y -0.072 | C -0.534 | L -0.112 | V -0.021 | Q 0.076 | H -0.13 | G -0.184 | R 0.017 | E -0.25 | S -0.128 | I -0.163 | D -0.332
Y19: N -0.242 | M -0.464 | K -0.004 | G -0.912 | E -0.321 | L -0.51 | C -0.528 | P -0.083 | I -0.051 | Q -0.225 | S -0.375 | T -0.395 | H -0.28 | V -1.04 | W -0.557 | A -0.421 | R -0.162
